Values quoted from earlier work in publication PMC10814857, “Functional Classification and Interaction Selectivity Landscape of the Human SH3 Domain Superfamily” (Cells, 2024).

Tests used:
PACSIN1 SH3 domain = target: PACSIN1 SH3 domain; parameters: method as in ref [60] (a number printed in a supplementary file, which may have a reference list of its own: not looked up in the article's list); details: PACSIN1, ITC, Table S4; ref [60]
[1] = target: SH3GL2 (Endophilin-A1) SH3 domain; details: ITC, Table S4, ref [60]
Description: page 6: […] […] […] PAK2 […] PXXXPR PXXXPR 1.05 ITC [34] TRSVI ITSN1-2 Synthetic […] Exceptional [W/F][R/W]xSx[A/ 53 ITC [29] peptide G][F/Y][L/V]xGP[ W/L] NCK1-2 N-WASP GP[…] … 147 HSQC [64] VA[…] 199 PLCG1 SOS1 AAPV[…] … 0.20mM SPR [75] AADS[…] 0.40mM AAES[…] 0.70mM AAIA[…] 0.28mM BAIAP2L1 EspFUR45 IPP[…] … 0.5 nM ITC [76] (IRTKS) 9 SORBS2- Synthetic […] Exceptional XRXGXAYLXYVX 38 ITC [29] 1 peptide Synthetic RL[…](L/P) ...

[2] = target: bPIX (ARHGEF7) SH3 domain; parameters: method as in 3 sources, one per row (each row's own in cited_ref): ref [33] (a number printed in a supplementary file, which may have a reference list of its own: not looked up in the article's list) ||| ref [60] (a number printed in a supplementary file, which may have a reference list of its own: not looked up in the article's list) ||| ref [34] (a number printed in a supplementary file, which may have a reference list of its own: not looked up in the article's list); details: ITC, Table S4, ref [60]

B1: PEDAGAGENRRVSGNNSPSLSNGGFKPSRPPRPSRPPPPTPRRPASVNGSPSATSESDGSSTG (peptide)
chain: PEDAGAGENRRVSGNNSPSLSNGGFKPSRPPRPSRPPPPTPRRPASVNGSPSATSESDGSSTG
notes: published Itch proline-rich peptide
For B1, the Kd (PACSIN1 SH3 domain) is listed as 4330 nM, the Kd [1] is listed as 457 nM and the Kd [2] is listed as 1440 nM.
